Source: paper PMC10397247
Read-outs that look alike come from different tables or passages of the source. Values belong to the binder of their own block, whether it stands above or below them.

What was measured:
[1] = molecular target: T1, 4H3073-AA; assay: two-hybrid library CCmax;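 note: natural log of median RNA to DNA barcode read ratio; higher means stronger binding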
T1 chain: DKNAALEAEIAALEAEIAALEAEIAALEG

[2] = molecular target: T2, 4H3438-AA; assay: two-hybrid library CCmax; settings: mean of both orientations;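 note: natural log of median RNA to DNA barcode read ratio; higher means stronger binding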
T2 chain: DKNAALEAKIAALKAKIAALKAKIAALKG

[3] = molecular target: T3, 4H347-AA; assay: two-hybrid library CCmax; settings: mean of both orientations;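 note: natural log of median RNA to DNA barcode read ratio; higher means stronger binding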
T3 chain: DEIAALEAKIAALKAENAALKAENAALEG

[4] = molecular target: T4, 4H406-AA; assay: two-hybrid library CCmax; settings: mean of both orientations;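 note: natural log of median RNA to DNA barcode read ratio; higher means stronger binding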
T4 chain: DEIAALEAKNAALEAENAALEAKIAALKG

[5] = molecular target: T5, 4H452-AA; assay: two-hybrid library CCmax; settings: mean of both orientations;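 note: natural log of median RNA to DNA barcode read ratio; higher means stronger binding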
T5 chain: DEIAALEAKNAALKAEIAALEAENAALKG

[6] = molecular target: T6, 4H56-AA; assay: two-hybrid library CCmax; settings: mean of both orientations;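 note: natural log of median RNA to DNA barcode read ratio; higher means stronger binding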
T6 chain: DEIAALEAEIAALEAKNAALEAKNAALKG

[7] = molecular target: T7, 4H_APH; assay: two-hybrid library CCmax; settings: mean of both orientations
T7 chain: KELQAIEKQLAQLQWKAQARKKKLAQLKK

[8] = molecular target: T8, 4H_BCR; assay: two-hybrid library CCmax; settings: mean of both orientations
T8 chain: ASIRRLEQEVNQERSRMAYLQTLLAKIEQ

[9] = molecular target: 4H_GCN4; assay: two-hybrid library CCmax; settings: mean of both orientations
Sequence of 4H_GCN4 (chain, as listed by the source): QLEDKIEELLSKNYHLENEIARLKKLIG

[10] = molecular target: GCN2_T; assay: two-hybrid library CCmax
[11] = molecular target: T9, APC6108-AA; assay: two-hybrid library CCmax
T9 chain: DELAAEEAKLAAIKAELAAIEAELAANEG

[12] = molecular target: T10, APC7099-AA; assay: two-hybrid library CCmax; settings: mean of both orientations
T10 chain: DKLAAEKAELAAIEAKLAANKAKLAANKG

[13] = molecular target: T11, APC8191-AA; assay: two-hybrid library CCmax; settings: mean of both orientations
T11 chain: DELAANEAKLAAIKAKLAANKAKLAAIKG

[14] = molecular target: T12, APC8910-AA; assay: two-hybrid library CCmax; settings: mean of both orientations
T12 chain: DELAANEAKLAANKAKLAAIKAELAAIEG

[15] = molecular target: T13, APC9096-AA; assay: two-hybrid library CCmax; settings: mean of both orientations
T13 chain: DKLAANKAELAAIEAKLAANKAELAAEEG

[16] = molecular target: T14, APC9319-AA; assay: two-hybrid library CCmax; settings: mean of both orientations
T14 chain: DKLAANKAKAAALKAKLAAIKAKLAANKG

[17] = molecular target: T15, APC542-AA; assay: two-hybrid library CCmax
T15 chain: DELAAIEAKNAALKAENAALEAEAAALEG

[18] = molecular target: T16, APC5531-AA; assay: two-hybrid library CCmax
T16 chain: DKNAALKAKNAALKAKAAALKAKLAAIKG

[19] = molecular target: T17, APC6088-AA; assay: two-hybrid library CCmax; settings: mean of both orientations
T17 chain: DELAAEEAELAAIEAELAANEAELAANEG

[20] = molecular target: T18, APC7524-AA; assay: two-hybrid library CCmax; settings: mean of both orientations
T18 chain: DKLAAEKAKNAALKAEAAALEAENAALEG

[21] = molecular target: T19, APC8401-AA; assay: two-hybrid library CCmax; settings: mean of both orientations
T19 chain: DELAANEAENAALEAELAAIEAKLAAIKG

[22] = molecular target: T20, APC8516-AA; assay: two-hybrid library CCmax; settings: mean of both orientations
T20 chain: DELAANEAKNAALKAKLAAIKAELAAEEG

[23] = molecular target: T21, APC9141-AA; assay: two-hybrid library CCmax; settings: mean of both orientations
T21 chain: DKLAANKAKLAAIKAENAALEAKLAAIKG

[24] = molecular target: T22, APC9182-AA; assay: two-hybrid library CCmax; settings: mean of both orientations
T22 chain: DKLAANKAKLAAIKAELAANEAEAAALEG

[25] = molecular target: T23, APC9291-AA; assay: two-hybrid library CCmax; settings: mean of both orientations
T23 chain: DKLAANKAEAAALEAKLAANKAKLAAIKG

[26] = molecular target: T24, APC9806-AA; assay: two-hybrid library CCmax; settings: mean of both orientations
T24 chain: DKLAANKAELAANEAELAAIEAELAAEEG

[27] = molecular target: T25, 4H741-bA; assay: two-hybrid library CCNG1
T25 chain: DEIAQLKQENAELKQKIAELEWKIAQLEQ

[28] = molecular target: T26, 4H754-bN; assay: two-hybrid library CCNG1
T26 chain: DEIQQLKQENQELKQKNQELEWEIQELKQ

[29] = molecular target: T27, 4H780-bN; assay: two-hybrid library CCNG1
T27 chain: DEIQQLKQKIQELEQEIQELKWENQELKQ

[30] = molecular target: T28, 4H797-bN; assay: two-hybrid library CCNG1
T28 chain: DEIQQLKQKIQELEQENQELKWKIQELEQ

[31] = molecular target: T29, 4H855-bN; assay: two-hybrid library CCNG1
T29 chain: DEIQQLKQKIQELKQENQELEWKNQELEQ

[32] = molecular target: T30, 4H883-bN; assay: two-hybrid library CCNG1
T30 chain: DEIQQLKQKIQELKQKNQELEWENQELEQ

[33] = molecular target: T31, 4H908-bN; assay: two-hybrid library CCNG1
T31 chain: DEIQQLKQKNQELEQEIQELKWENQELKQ

[34] = molecular target: T32, 4H918-bN; assay: two-hybrid library CCNG1
T32 chain: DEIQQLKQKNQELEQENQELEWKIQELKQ

[35] = molecular target: T33, 4H953-bN; assay: two-hybrid library CCNG1
T33 chain: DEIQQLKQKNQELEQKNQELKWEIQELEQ

[36] = molecular target: T34, 4H967-bN; assay: two-hybrid library CCNG1
T34 chain: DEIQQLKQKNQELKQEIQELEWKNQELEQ

[37] = molecular target: T35, 4H968-bN; assay: two-hybrid library CCNG1
T35 chain: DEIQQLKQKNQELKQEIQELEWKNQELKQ

[38] = molecular target: T36, 4H780-bA; assay: two-hybrid library CCNG1
T36 chain: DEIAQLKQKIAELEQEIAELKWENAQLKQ

[39] = molecular target: T37, 4H797-bA; assay: two-hybrid library CCNG1
T37 chain: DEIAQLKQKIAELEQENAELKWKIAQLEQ

[40] = molecular target: T38, 4H855-bA; assay: two-hybrid library CCNG1
T38 chain: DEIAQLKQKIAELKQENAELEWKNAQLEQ

[41] = molecular target: T39, 4H918-bA; assay: two-hybrid library CCNG1
T39 chain: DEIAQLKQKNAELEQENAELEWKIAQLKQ

[42] = molecular target: T40, 4H953-bA; assay: two-hybrid library CCNG1
T40 chain: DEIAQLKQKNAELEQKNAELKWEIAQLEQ

[43] = molecular target: T41, 4H968-bA; assay: two-hybrid library CCNG1
T41 chain: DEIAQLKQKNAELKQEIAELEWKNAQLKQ

[44] = molecular target: T42, 4H780-bH; assay: two-hybrid library CCNG1
T42 chain: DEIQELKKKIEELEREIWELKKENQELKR

[45] = molecular target: T43, 4H797-bH; assay: two-hybrid library CCNG1
T43 chain: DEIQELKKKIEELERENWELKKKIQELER

[46] = molecular target: T44, 4H855-bH; assay: two-hybrid library CCNG1
T44 chain: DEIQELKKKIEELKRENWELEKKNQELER

[47] = molecular target: T45, 4H918-bH; assay: two-hybrid library CCNG1
T45 chain: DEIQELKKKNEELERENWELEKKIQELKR

[48] = molecular target: T46, 4H953-bH; assay: two-hybrid library CCNG1
T46 chain: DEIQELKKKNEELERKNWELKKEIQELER

[49] = molecular target: T47, 4H968-bH; assay: two-hybrid library CCNG1
T47 chain: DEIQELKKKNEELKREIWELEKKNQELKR

[50] = molecular target: T48, 4H741-bH; assay: two-hybrid library CCNG1
T48 chain: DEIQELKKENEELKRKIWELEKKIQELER

[51] = molecular target: T49, 4H730-bA; assay: two-hybrid library CCNG1
T49 chain: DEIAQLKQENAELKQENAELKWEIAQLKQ

[52] = molecular target: T50, 4H796-bA; assay: two-hybrid library CCNG1
T50 chain: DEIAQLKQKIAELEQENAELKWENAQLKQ

[53] = molecular target: T51, 4H932-bA; assay: two-hybrid library CCNG1
T51 chain: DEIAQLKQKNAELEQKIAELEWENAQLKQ

[54] = molecular target: T52, 4H949-bA; assay: two-hybrid library CCNG1
T52 chain: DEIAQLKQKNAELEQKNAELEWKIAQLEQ

[55] = molecular target: T53, 4H510-AA; assay: two-hybrid library CCmax
T53 chain: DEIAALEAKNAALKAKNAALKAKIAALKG

[56] = molecular target: T54, 4H775-AA; assay: two-hybrid library CCmax; settings: mean of both orientations
T54 chain: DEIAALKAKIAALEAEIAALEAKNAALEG

[57] = molecular target: T55, 4H816-AA; assay: two-hybrid library CCmax; settings: mean of both orientations
T55 chain: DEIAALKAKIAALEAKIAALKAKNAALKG

[58] = molecular target: T56, 4H87-AA; assay: two-hybrid library CCmax; settings: mean of both orientations
T56 chain: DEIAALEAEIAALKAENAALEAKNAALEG

[59] = molecular target: T57, O11-AA; assay: two-hybrid library CCmax
T57 chain: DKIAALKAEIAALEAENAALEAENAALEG

[60] = molecular target: T58, O13-AA; assay: two-hybrid library CCmax; settings: mean of both orientations
T58 chain: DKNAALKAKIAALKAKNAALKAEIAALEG

[61] = molecular target: T59, O14-AA; assay: two-hybrid library CCmax; settings: mean of both orientations
T59 chain: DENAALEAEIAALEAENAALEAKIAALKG

B4: 4H741-bA (peptide)
chain: DEIAQLKQENAELKQKIAELEWKIAQLEQ
interaction score [27]: 0.341

B5: 4H754-bN (peptide)
chain: DEIQQLKQENQELKQKNQELEWEIQELKQ
interaction score [28]: 0.447
interaction score [29]: 0.164
interaction score [30]: -1.55
interaction score [31]: -0.508
interaction score [32]: -1.38
interaction score [33]: -1.55
interaction score [34]: -1.04
interaction score [35]: -1.42
interaction score [36]: -0.968
interaction score [37]: -0.3

B6: 4H780-bA (peptide)
chain: DEIAQLKQKIAELEQEIAELKWENAQLKQ
interaction score [38]: 1.22
interaction score [39]: -0.749
interaction score [40]: -0.574
interaction score [41]: -0.303
interaction score [42]: -0.243
interaction score [43]: -1.3

B10: 4H741-bH (peptide)
chain: DEIQELKKENEELKRKIWELEKKIQELER
interaction score [50]: 1.26

B11: 4H730-bA (peptide)
chain: DEIAQLKQENAELKQENAELKWEIAQLKQ
interaction score [51]: 1.25
interaction score [52]: -0.666
interaction score [53]: -0.52
interaction score [54]: -0.437

B12: 4H510-AA (peptide)
chain: DEIAALEAKNAALKAKNAALKAKIAALKG
interaction score [55]: -1.44
interaction score [56]: -1.67
interaction score [57]: -2
interaction score [58]: -1.29
interaction score [7]: -2.26
interaction score [8]: -2.2
interaction score [9]: -2.32
interaction score [10]: -1.77
interaction score [59]: 1.49
interaction score [60]: -1.66
interaction score [61]: 1.32

Results, then the binder that gave them:

interaction score [1]: -0.701
interaction score [2]: 1.51
interaction score [3]: -1.33
interaction score [4]: -1.6
interaction score [5]: -1.22
interaction score [6]: -1.28
interaction score [7]: 0.197
interaction score [8]: -1.37
interaction score [9]: -0.626
interaction score [10]: -1.05
B1: 4H3073-AA (peptide)
chain: DKNAALEAEIAALEAEIAALEAEIAALEG

interaction score [11]: -1.61
interaction score [12]: -1.52
interaction score [13]: -1.6
interaction score [14]: -2.2
interaction score [15]: -1.73
interaction score [16]: -1.1
B2: APC6108-AA (peptide)
chain: DELAAEEAKLAAIKAELAAIEAELAANEG

interaction score [17]: -1.57
interaction score ([18]; mean of both orientations): -1.88
interaction score [19]: -2.13
interaction score [20]: -2
interaction score [21]: -1.89
interaction score [22]: -1.5
interaction score [23]: -1.64
interaction score [24]: -1.84
interaction score [25]: -1.54
interaction score [26]: -1.91
B3: APC542-AA (peptide)
chain: DELAAIEAKNAALKAENAALEAEAAALEG

interaction score [29]: 1.99
interaction score [30]: -0.0265
interaction score [31]: -0.732
interaction score [34]: -0.346
interaction score [35]: -0.748
interaction score [37]: -2.05
B7: 4H780-bN (peptide)
chain: DEIQQLKQKIQELEQEIQELKWENQELKQ

interaction score [44]: 1.6
interaction score [45]: -0.654
interaction score [46]: 0.0924
interaction score [47]: 0.556
interaction score [48]: -0.153
interaction score [49]: -0.28
B8: 4H780-bH (peptide)
chain: DEIQELKKKIEELEREIWELKKENQELKR

interaction score [18]: -1.63
interaction score [19]: -1.44
interaction score [20]: -1.84
interaction score [21]: -1.77
interaction score [22]: -1.6
interaction score [23]: -1.97
interaction score [24]: -1.96
interaction score [25]: -1.72
interaction score [26]: -1.95
B9: APC5531-AA (peptide)
chain: DKNAALKAKNAALKAKAAALKAKLAAIKG
